The text below walks through data of paper PMC3017643 (Journal of molecular biology, 2010).

One assay concerns the target β-catenin 1-781 (UniProt Q02248). The assay can be described thus: isothermal titration calorimetry. The conditions noted are these: reference: non-phosphorylated Lef-1(1–63); sites S40. Background: In ITC the heat of successive injections is recorded.
Assay [1] addresses full-length β-catenin (residues 1–781) (murine) (UniProt Q02248). The assay can be described thus: ITC.
Assay [2] has as its target T1, full-length β-catenin (residues 1–781) (murine, UniProt Q02248 1-781).
T1 sequence (looked up): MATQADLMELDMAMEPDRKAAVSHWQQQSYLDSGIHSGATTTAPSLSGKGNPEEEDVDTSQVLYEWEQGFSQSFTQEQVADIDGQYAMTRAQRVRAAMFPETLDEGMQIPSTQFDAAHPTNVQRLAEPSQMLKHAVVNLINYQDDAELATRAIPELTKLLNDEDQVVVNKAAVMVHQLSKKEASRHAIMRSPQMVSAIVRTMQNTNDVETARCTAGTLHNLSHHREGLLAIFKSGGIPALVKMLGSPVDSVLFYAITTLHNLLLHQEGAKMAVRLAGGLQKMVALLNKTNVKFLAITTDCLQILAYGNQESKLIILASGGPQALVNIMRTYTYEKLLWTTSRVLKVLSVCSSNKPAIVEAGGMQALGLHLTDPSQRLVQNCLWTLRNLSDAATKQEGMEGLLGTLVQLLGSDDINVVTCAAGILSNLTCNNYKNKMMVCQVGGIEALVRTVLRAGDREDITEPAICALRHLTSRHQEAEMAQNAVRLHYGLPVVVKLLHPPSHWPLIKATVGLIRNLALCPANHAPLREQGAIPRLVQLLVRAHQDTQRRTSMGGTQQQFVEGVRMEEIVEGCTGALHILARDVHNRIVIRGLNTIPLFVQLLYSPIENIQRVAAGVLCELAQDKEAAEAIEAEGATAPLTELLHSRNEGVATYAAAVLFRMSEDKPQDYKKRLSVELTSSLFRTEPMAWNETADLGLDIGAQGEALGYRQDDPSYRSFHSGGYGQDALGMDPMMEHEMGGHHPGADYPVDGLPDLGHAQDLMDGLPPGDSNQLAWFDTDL
As to the kind of experiment: ITC.

Consider “Lef-1 1-63 (from UniProt P27782) CK2-phosphorylated, HPLC-purified pLef-1(1–63)”, for which the KD result with β-catenin 1-781 is “same; reference 23 (± 3) × 10−9”.

In assay [1], “murine Lef-1(1–63), non-phosphorylated, as used for ITC (from UniProt P27782 1-63) (domain or fragment)” registered a dH of -13.1 kcal/mol.

In general, Kd refers to the equilibrium constant for the complex coming apart. A higher Kd goes with weaker binding. As to “CK2-phosphorylated murine Lef-1(1–63), HPLC-separated, as used for ITC (from UniProt P27782 1-63) (domain or fragment)”, in assay [1], the dissociation constant Kd turned out to be 35 nM and the dH was -12.3 kcal/mol.

B1: human TCF4 β-catenin binding region, residues 1–57 (domain or fragment, UniProt Q9NQB0 1-57, looked up)
chain: MPQLNGGGGDDLGANDELISFKDEGEQEEKSSENSSAERDLADVKSSLVNESETNQN
Take B1: in assay [2], the equilibrium dissociation constant (Kd) stood at 16 nM and the dH is -12.5 ± 0.1 kcal/mol.
